# Patent US7422883B2, “Map kinase integrin-binding domain” (Inter-K Pty Limited, priority 2000, dated 2008)
# No end group written: not given here. *: point of attachment. Biotin = O=C1N[C@H]2[C@H](CS[C@H]2CCCCC(=O)*)N1
# Tests used:
# [1] = tested on: gelatinase B secretion by SW480 β6 transfectants; assay: Gelatinase B secretion, gelatin zymogram of tumour-conditioned medium; type: cell-based, human; details: 40 μM, serum-free, 48 hours, versus DMSO control
# Experimental: SW480 β6 transfectants were cultured under serum-free conditions for 48 hours in the absence/presence of the MEK inhibitor PD98059 (40 μM) or DMSO (vehicle control). Tumour-conditioned medium was assayed for gelatinase B by analysis of equal protein loads in a gelatin zymogram.
# [2] = tested on: MAP kinase activity in HT29 wild-type cells; assay: MAP kinase assay, serum-stimulated HT29 cells; type: cell-based, human; details: inhibitors 40 μM added one hour before serum, serum 30 min
# Experimental: (§1) Cultures of WiDr and HT29 mock and antisense β6 transfectants were established by seeding 1×10^6 cells/5 ml of culture medium in 25 cm^2 tissue culture flasks. Cells were incubated at 37° C. in humidified CO2 for 24 hours before serum starvation in serum-free medium for the next 16 hours. Foetal calf serum was then added to a final concentration of 10% for 30 mins before MAP kinase assays were performed. […] The ability of cells to transfer phosphate from [γ^32P]-ATP to a synthetic peptide that contains specifically a p42/p44 MAP kinase phosphorylation site was measured as described in the manufacturer's instructions. [^32P]-labelled peptides were spotted onto PEI-cellulose paper, unbound radioactivity was washed with 75 mM phosphoric acid and bound [^32P]-labelled peptides were measured by liquid scintillation counting. Protein estimation was performed on each cell lysate used and enzyme activity calculated as described in the manufacturer's instructions. […]
# (§2) The effect of MEK (MAP kinase) inhibitors UO126 and PD98059 on MAP kinase activity in WiDr and HT29 wild-type cells was tested in the absence/presence of serum. […] Serum was then added for 30 min and MAP kinase activity assessed before and after addition of serum. […]
# [3] = tested on: MAP kinase activity in WiDr wild-type cells; assay: MAP kinase assay, serum-stimulated WiDr cells; type: cell-based, human; details: inhibitors 40 μM added one hour before serum, serum 30 min
# Experimental: as §1, §2
# ERK2 = target: T1, ERK2 (Mus musculus, UniProt P63085); assay: ELISA of ERK2 binding to biotinylated integrin cytoplasmic domain peptides; details: for binding of peptide to ERK2: ERK2 (1 μm), FIG. 35C; for binding of ERK2 to integrin subunit peptides: corrected for non-specific binding, FIG. 34; for binding of ERK2 to peptide: ERK2 cleaved from GST-ERK2 by thrombin, FIG. 23; for binding of non-phosphorylated ERK2 to peptide: over a range of concentrations of ERK2, FIG. 18
# T1 construct: GST (glutathione-S-transferase); made in house
# Experimental: Peptide fragments corresponding to regions of the cytoplasmic tail domain of the β6 subunit were screened in an enzyme-linked immunosorbent assay (ELISA) for binding with ERK2. The 52 amino acid long β6 cytoplasmic tail is shown in FIG. 16 as are the amino acid sequences for the cytoplasmic domains of the β1 to β3 subunits. In particular, four synthetic peptides designated fragment 1 to fragment 4 were prepared and biotinylated at the N-terminal end of each, respectively (Auspep Pty Ltd, Melbourne Australia).
# (§3) Overlapping biotinylated fragments 1 to 4 were coated onto streptavidin coated polystyrene plates (Pierce, Rockford Ill. USA, Cat No. 15125) and the ELISA performed substantially according to manufacturers instructions. Briefly, wells are washed with 3×200 μl of wash buffer (TBS, 0.1% BSA, 0.05% Tween 20 or SuperBlock™ blocking buffer in TBS, Pierce, Prod. No. 37535) prior to addition of biotinylated peptides (100 μl) and incubation for 1 hr at room temperature to allow for capture of the peptides on the plate. Following another washing step, peptides were overlayed with GST-ERK, ERK (or JNK-1) alone at a volume of 100 μl per well, and the plates incubated for a further 1 hr at room temperature before removal of any unbound ERK by further washing.
# Binding of ERK to the peptides is detected using 100 μl anti-ERK1/2 mAb SC1647 (Santa Cruz) as the primary antibody at a dilution of 1:700 (isotype matched antibody IgG2b is used as a control). This is followed by another washing step and addition of 100 μl rabbit anti-mouse antibody (Biorad) conjugated to alkaline phosphatase at a concentration of 1:1000 for 30 minutes again at room temperature. A […] of detection reagent (alkaline phosphatase detection kit-Biorad) is then introduced into each well after a final washing step and allowed to react for 15-30 minutes at room temperature in the dark before absorbance is measured at 405 nm. All dilutions of peptides, MAP kinase and antibodies were performed using the wash buffer. GST-ERK is a fusion protein consisting of ERK coupled to glutathione-S-transferase and purified from host cells transfected with pGEX vector.
# To further localise the binding domain on the cytoplasmic tail of the β6 subunit, progressively shorter peptides from the region of the β6 cytoplasmic tail corresponding to peptide fragment 2 were synthesised, biotinylated and the capacity to associate or otherwise bind to ERK2 assessed as described above. The binding of GST.ERK2 to a 15 mer test peptide (seq. 4) having the amino acid sequence RSKAKWQTGTNPLYR (SEQ ID NO: 7) and a 10 mer test peptide having the sequence RSKAKWQTGT (SEQ ID NO: 21) is shown in FIG. 20 compared to fragment 2 over a range of concentrations of the peptides. […] 4 peptide compared to fragment 2 was found. Binding of ERK2 to the seq. 3 peptide was substantially less than that observed for seq. 4.
# Binding of ERK2 to the seq.4 peptide (RSKAKWQTGTNPLYR) (SEQ ID NO: 7) was compared with peptides corresponding to regions of the cytoplasmic domain of integrin subunits β1, β2, β3 and β5. The amino acid sequences for those peptides is shown below:
# To evaluate this, cell lysates containing equal protein loads were prepared from SW480 wild-type cells and SW480 cells transfected with either vector alone (mock transfectants), wild type β6 or the β6 deletion mutant Δ746-764 (lacking the sequence EAERSKAKWQTGTNPLYRG (SEQ ID NO: 26), Cone et al, 1994). The lysates were immunoprecipitated with mAbs R6G9 (anti-β6), P1F6 (anti-β5) or murine IgG control antibody (mlgG). […] To determine whether β5 can bind ERK2 in vitro, a 15-mer peptide fragment derived from the β5 cytoplasmic domain corresponding to the ERK binding domain on β6 was tested for its ability to bind ERK2 in an ELISA.
# β6-ERK2 interaction = assay: ERK2 peptide competition ELISA for β6-ERK2 binding; details: increasing concentrations incubated with ERK2
# Experimental: To determine the β6-binding domain(s) of ERK2, a biotinylated β6 cytoplasmic tail peptide spanning the cytoplasmic tail of β6 was incubated with a soluble ERK2 peptide fragment in a total incubation volume of 20 μl phosphate buffered saline (PBS). The mixture was stood for 45 minutes at room temperature (RT). Soluble ERK2 in PBS was then added and the solution left for a further 30 minutes. Following incubation the reaction volume was made to 400 μl with carbonate buffer (0.015 M Na2CO3 and 0.035M NaHCO3 at pH 9.6) and 100 μl of this mixture added to each of 4 wells of a polystyrene ELISA plate (Nunc, Maxicorp). ERK2/peptides were allowed to attach to the plastic substrate for 18 to 20 hours at RT in the dark. After immobilisation the overlying buffer was flicked from the wells and excess solid surface blocked with casein (0.5% skim milk) in PBS for 60 minutes at RT. Wells were washed (×3) with was buffer (PBS plus 0.5% skim milk powder, 0.05% Tween-20) prior to incubation with the anti-β6 antibody SC-6632 (Santa Cruz) diluted 1:500 v/v in wash buffer (2 wells) or a control antibody (2 wells). Incubation with the primary antibody was carried out for 30 minutes at RT. […] Specific binding events were quantitatively determined using a colourimetric substrate system by measuring absorbency at […] (Bio-Rad, AP substrate kit). […]
# JNK-1 = target: T2, JNK-1 (Homo sapiens, UniProt P45983); assay: ELISA of JNK-1 binding to β6 cytoplasmic tail peptide; details: JNK-1 0.05-1.5 μm/100 μl; FIG. 24
# T2 construct: purchased Santa Cruz
# Experimental: as §3
# Briefly, 0.05-1.5 μm/100 μl of JNK-1 (Santa Cruz) was aliquoted into wells of a 96 well culture place containing increasing concentrations of the β6 cytoplasmic domain tail peptide used in Example 3. For comparison purposes, non-phosphorylated GST-ERK2 (0.05-1.5 μm/100 μl) was aliquoted into wells containing β6 cytoplasmic tail peptide or peptide fragments 1 or 2, respectively. Binding of JNK-1 was detected using mouse anti-JNK-1 mAb SC 474-G (Santa Cruz) and HRP-conjugated goat anti-mouse antibody.
# T1 sequence (P63085 whole entry, the tested form may be a part): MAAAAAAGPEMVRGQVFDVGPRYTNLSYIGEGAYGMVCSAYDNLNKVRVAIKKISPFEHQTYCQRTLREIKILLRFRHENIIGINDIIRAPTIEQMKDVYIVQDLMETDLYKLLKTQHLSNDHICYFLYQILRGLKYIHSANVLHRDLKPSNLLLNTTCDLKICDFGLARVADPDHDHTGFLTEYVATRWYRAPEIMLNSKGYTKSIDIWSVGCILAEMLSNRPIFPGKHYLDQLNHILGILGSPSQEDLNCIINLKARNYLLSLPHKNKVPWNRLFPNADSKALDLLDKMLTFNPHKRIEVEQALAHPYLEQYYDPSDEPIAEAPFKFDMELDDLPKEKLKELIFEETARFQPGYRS
# T2 sequence (P45983 whole entry, species assumed): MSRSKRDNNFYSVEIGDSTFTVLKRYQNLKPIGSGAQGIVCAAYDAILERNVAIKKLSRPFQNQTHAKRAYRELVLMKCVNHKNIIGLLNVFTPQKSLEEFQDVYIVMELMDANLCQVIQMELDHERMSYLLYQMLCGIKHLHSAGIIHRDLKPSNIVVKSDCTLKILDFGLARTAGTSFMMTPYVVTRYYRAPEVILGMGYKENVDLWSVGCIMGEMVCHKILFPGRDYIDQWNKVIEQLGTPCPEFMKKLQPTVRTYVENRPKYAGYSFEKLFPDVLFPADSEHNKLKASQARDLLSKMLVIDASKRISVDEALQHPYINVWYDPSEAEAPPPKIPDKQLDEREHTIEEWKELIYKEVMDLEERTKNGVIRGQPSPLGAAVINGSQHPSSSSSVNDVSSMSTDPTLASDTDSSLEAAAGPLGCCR
molecule,measurement,setting,value
COc1cccc(-c2cc(=O)c3ccccc3o2)c1N [PD98059],gelatinase B secretion,[1],reduced gelatinase B secretion compared with controls
same,serum-stimulated MAP kinase activity,[2],inhibitable
same,serum-stimulated MAP kinase activity,[3],inhibitable
"KFEKEKMNAKWDTGENPIYK [β1, peptide of the β1 cytoplasmic domain]",binding of peptide to ERK2,ERK2,failed to bind ERK2
"RARAKWDTANNPLYK [β3, peptide of the β3 cytoplasmic domain]",binding of ERK2 to integrin subunit peptides,ERK2,Binding of ERK2 to the β5 and β3 peptides was also found
"RSKAK (also: biotinylated, site not given here) [5 mer peptide]",binding of ERK2 to peptide,ERK2,Negligible binding
"RSKAKNPLYR [10(4), 4 is omitted]",binding of ERK2 to peptide,ERK2,Comparable binding of ERK2 to seq. 4
"RSKAKWQTGT (also: biotinylated, site not given here) [seq. 3, 10 mer test peptide of the β6 cytoplasmic tail]",binding of GST.ERK2 to peptide,"ERK2; over a range of concentrations of the peptides, compared to fragment 2, FIG. 20",substantially less than that observed for seq. 4
"RSKAKWQTGTNPLYRGSTST (Biotin-RSKAKWQTGTNPLYRGSTST) [fragment 2, biotinylated peptide of the β6 cytoplasmic tail]",binding of non-phosphorylated GST.ERK2 to peptide,"ERK2; GST.ERK2 0.25 μg/100 μl, peptide 1 μg/100 μl, FIG. 17",significant binding
same,binding of non-phosphorylated ERK2 to peptide,ERK2,Significant binding
"RSRARYEMASNPLYR [β5, 15-mer peptide of the β5 cytoplasmic domain]",binding of peptide to ERK2,ERK2,Dose-dependant binding
same,binding of ERK2 to integrin subunit peptides,ERK2,Binding of ERK2 to the β5 and β3 peptides was also found
β6 cytoplasmic tail peptide: peptide spanning the 52 amino acid long β6 cytoplasmic tail (HDRKEVAKFEAERSKAKWQTGTNPLYRGSTSTFKNVTYKHREKQKVDLSTDS),concentration at which maximal β6 bound to ERK was detected,β6-ERK2 interaction,0.25 µM
same,binding of JNK-1 to peptide,JNK-1,Significant binding
same,binding of non-phosphorylated ERK2 to peptide,ERK2,Significant binding
